According to patent US20230406950A1 (LYVGEN BIOPHARMA, published 2023):

B1: Ly1630 (antibody, V domains shown)
VH: QVQLVQSGAEVKKPGASVKVSCKASGYTFAGFEMHWVRQAPGQGLEWMGAIDPKTGGTDYNQKFKDRVTMTRDTSISTAYMELSRLRSDDTAVYYCARDLGYFDVWGQGTLVTVSS
VL: DIQMTQSPSSLSASVGDRVTITCRASQDIRSNLNWYQQKPGGAVKLLIYYTSRLHSGVPSRFSGSGSGTDYTLTISSLQPEDFATYFCQQSEKLPRTFGGGTKVEIR
notes: Humanized anti-CD137 antibody; also called parent anti-CD137 antibody clone Ly1630; CD137 parental antibody Ly1630
B2: Ly076 (antibody, V domains shown)
VH: QVQLVQSGAEVKKPGASVKVSCKASGYTFTDFWMSWVRQAPGQGLEWMGQIYPNTGTTHSNEKFKGRVTMTRDTSTSTVYMELSSLRSEDTAVYYCARSYHISTTPNWFAYWGQGTLVTVSS
VL: DIQMTQSPSSLSASVGDRVTITCKASQNVYKKLEWYQQKPGKVPKVLIYHTNILQTGVPSRFSGSGSGTDYTLTISSLQPEDVATYYCYQWNSGPTFGGGTKVEIK
notes: Humanized anti-PD-L1 parent; also called anti-PD-L1 antibody Ly076

What was measured:
[1] = biological target: T1, human CD137 expressed on cells (human, UniProt Q07011 24-255); assay: FACS on CHO cells expressing human CD137 (MFI)
T1 construct: whole, on cells; also called 4-1BB; TNFRSF9
T1 sequence (Q07011 24-255): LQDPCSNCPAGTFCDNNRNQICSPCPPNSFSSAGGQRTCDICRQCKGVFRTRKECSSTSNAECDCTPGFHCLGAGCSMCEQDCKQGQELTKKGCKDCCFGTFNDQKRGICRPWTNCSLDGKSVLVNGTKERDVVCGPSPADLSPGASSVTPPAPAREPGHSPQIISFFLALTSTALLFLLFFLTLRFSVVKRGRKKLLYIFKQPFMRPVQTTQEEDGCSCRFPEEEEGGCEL
Method: (§1) Anti-GITR/CD137 bi-specific antibodies were analyzed by FACS for their binding properties to human GITR and/or human CD137 expressed on CHO cells. Briefly, cultured cells were harvested, counted and cell viability was evaluated using the Trypan Blue exclusion method. Viable cells were then adjusted to 2×10⁶ cells per mL in PBS containing 2% BSA. 100 μL of this cell suspension were further aliquoted per well into a V-bottom 96-well plate. […] After incubation for 2 hours at 4° C., cells were centrifuged (3 min, 1000× g), washed with 250 μL/well BSA-containing FACS Stain Buffer, resuspended and incubated for an additional 1 hour at 4° C. with 100 μL/well fluorochrome-conjugated anti-IgG antibody for detection of the bisepecific antibody. Cells were then washed with 250 μL/well BSA-containing FACS Stain Buffer, resuspended in 100 μL/well FACS Stain Buffer, acquired and analyzed using a FACS machine. Binding of the bispecific antibodies to human GITR or human CD137 expressing CHO cells were evaluated and the mean fluorescence intensity is plotted in histograms or dot plots.

[2] = biological target: T1, human CD137 expressed on cells; assay: FACS on CHO cells expressing human CD137 (MFI); remark: listed apart in the source
Method: as §1, with “Anti-CD40/CD137” for “Anti-GITR/CD137”, “CD40” for “GITR”, “1000×g),” for “1000× g),”

[3] = biological target: T1, human CD137 expressed on cells; assay: flow cytometry (FACS), MFI, CHO cells expressing human CD137
Summary of the method: (§2)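 Viable CHO cells, 2×10⁶ cells/mL in PBS with 2% BSA, incubated with bispecific antibodies for 2 h at 4° C. Bound antibody detected with fluorochrome-conjugated anti-IgG, 1 h at 4° C. Read-out is mean fluorescence intensity by flow cytometry.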

[4] = biological target: T2, human PD-L1 expressed on cells (human, UniProt Q9NZQ7 19-290); assay: flow cytometry (FACS), MFI, CHO cells expressing human PD-L1
T2 construct: whole, on cells; also called human PD-L1 expressed on CHO cells; Raji-PD-L1 cells
T2 sequence (Q9NZQ7 19-290): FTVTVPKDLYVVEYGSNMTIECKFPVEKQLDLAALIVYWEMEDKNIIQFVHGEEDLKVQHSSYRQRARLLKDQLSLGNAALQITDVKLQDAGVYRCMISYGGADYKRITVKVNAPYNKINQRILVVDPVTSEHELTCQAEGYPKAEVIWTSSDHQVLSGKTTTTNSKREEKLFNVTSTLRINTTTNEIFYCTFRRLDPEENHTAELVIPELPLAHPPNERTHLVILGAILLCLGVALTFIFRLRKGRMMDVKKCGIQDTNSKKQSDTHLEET
Method: as §1, with “Exemplary anti-PD-1/CD137” for “Anti-GITR/CD137”, “PD-1” for “GITR”
(§3) Exemplary anti-PD-L1/CD137 bi-specific antibodies were analyzed by FACS for their binding properties to human PD-L1 or human CD137 expressed on CHO cells, following the procedures disclosed in Examples 1 above.

[5] = biological target: T1, human CD137 expressed on cells; assay: FACS on CHO cells expressing human CD137 (MFI); remark: listed apart in the source
Method: as §1, with “Anti-CD40/CD137” for “Anti-GITR/CD137”, “CD40” for “GITR”, “1000×g),” for “1000× g),”

[6] = biological target: T1, human CD137 expressed on cells; assay: FACS on CHO cells expressing human CD137 (MFI); remark: listed apart in the source
Method: as §1, with “Anti-OX40/CD137” for “Anti-GITR/CD137”, “OX40” for “GITR”, “1000×g),” for “1000× g),”

[7] = biological target: T1, human CD137 expressed on cells; assay: FACS on CHO cells expressing human CD137 (MFI); remark: listed apart in the source
Method: as §1, with “Anti-OX40/CD137” for “Anti-GITR/CD137”, “OX40” for “GITR”, “1000×g),” for “1000× g),”

[8] = biological target: T3, human PD-1 expressed on cells (human, UniProt Q15116 25-288); assay: flow cytometry (FACS), MFI, CHO cells expressing human PD-1
T3 construct: whole, on cells; also called human PD-1 over-expressed on the CHO cells; Jurkat/NFkB-Luci/PD-1 cells
T3 sequence (Q15116 25-288): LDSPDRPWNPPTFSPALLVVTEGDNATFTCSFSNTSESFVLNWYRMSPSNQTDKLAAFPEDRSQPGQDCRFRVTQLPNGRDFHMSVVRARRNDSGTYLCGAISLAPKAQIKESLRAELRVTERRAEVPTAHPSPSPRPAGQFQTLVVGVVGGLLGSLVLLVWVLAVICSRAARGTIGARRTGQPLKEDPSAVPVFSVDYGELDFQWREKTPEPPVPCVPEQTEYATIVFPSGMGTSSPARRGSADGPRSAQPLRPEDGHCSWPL
Summary of the method: as §2

[9] = biological target: T1, human CD137 expressed on cells; assay: FACS on CHO cells expressing human CD137 (MFI); remark: listed apart in the source
Method: as §1

[10] = biological target: T1, human CD137 expressed on cells; assay: flow cytometry (FACS), MFI, CHO cells expressing human CD137; remark: listed apart in the source
Method: as §1, with “Exemplary anti-PD-1/CD137” for “Anti-GITR/CD137”, “PD-1” for “GITR”
as §3

| Binder | EC50 (read off the curve) [1] [µg/mL] | EC50 (read off the curve) [2] [µg/mL] | EC50 (read off the curve) [3] [µg/mL] | binding result [4] | EC50 (read off the curve) [5] [µg/mL] | EC50 (read off the curve) [6] [µg/mL] | EC50 (read off the curve) [7] [µg/mL] | binding result [8] | EC50 (read off the curve) [9] [µg/mL] | binding result [10] |
| --- | --- | --- | --- | --- | --- | --- | --- | --- | --- | --- |
| B1 | ~0.1 | ~0.03 | ~0.05 | no binding (tested: 10 ug/ml) | ~0.03 | ~0.1 | ~0.09 | no binding (tested: 10 ug/ml) | ~0.1 |  |
| B2 |  |  |  | binds |  |  |  |  |  | no binding (tested: 10 ug/ml) |
